According to US20100260765A1 (AstraZeneca / MedImmune, published 2010):
Numbering of substitutions follows the chain as printed.

B1: 32B2 (antibody, V domains shown)
VH: EVQLLESGGGLVQPGGSLRLSCAASGFTFSNYAMSWVRQAPGKGLDWVSAISGRGGSTYYADSVKGRFTISRDNSKNTLFLLMNSLRAEDTAVYYCAKASGDDWGQGTLVTVSS
VL: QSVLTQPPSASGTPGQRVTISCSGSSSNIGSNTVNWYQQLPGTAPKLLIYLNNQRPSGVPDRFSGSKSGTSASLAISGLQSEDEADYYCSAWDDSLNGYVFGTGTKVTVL
notes: Fully human mAb from XenoMouse hybridoma, tested as hybridoma supernatant
B2: 29A11 (antibody, V domains shown)
VH: B1 VH with S35N, D46E, R54G, S57N, F80Y, L82Q, S85R
VL: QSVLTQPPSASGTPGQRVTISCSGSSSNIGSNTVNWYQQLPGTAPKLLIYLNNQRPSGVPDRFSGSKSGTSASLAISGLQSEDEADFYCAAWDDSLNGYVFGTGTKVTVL
notes: as for B1
B3: 29A3 (antibody, V domains shown)
VH: QVQLQESGPGLVKPSETLSLTCTVSGGSISSYFWSWIRQPAGKGLEWIGRIYFSGRTNYNPSLKSRVTMSVETSKNQFSLKLNSVTAADTAVYYCARDGGWNYDVAFDYWGQGTLVTVSS
VL: QAVLTQPSSLSASPGASASLTCTLRSGINVGTYRIYWYQQKPGSPPQYLLRYKSDSDQLQGSGVPSRFSGSKDASANAGILLISGLQSEDEADYYCMVWHSNTWVFGGGTKLTVL
notes: as for B1
B4: 29H3 (antibody, V domains shown)
VH: QVQLVQSGAEVKKPGASVKVSCKASGYTFTSYDINWVRQATGQGLEWMGWMNPNSGKTGYAQKFQGRVTMTRNTSINTAYMELSSLRSEDTAVYYCARGGYSNLGWFDPWGQGTLVTVSS
VL: DIQMTQSPSSVSASVGDRVTITCRASQGISSWLVWYHQKPGKAPKLLIYGASSLQSGVPSRFSGSGSGTDFTLTISSLQPEDFATYYCQQANNFPFTFGPGTKVDIK
notes: as for B1
B5: 29F7 (antibody, V domains shown)
VH: B4 VH with N73S, N77S
VL: B4 VL with S12F, S31T, V34A, H37Q, L46F, G50A, E81D
notes: as for B1
B6: 33D5 (antibody, V domains shown)
VH: B4 VH with T30G, K57N, M70L, N77R, A79V, T114S
VL: B4 VL with A13V, V34A, H37Q, G50A, N93S
notes: as for B1
B7: 27D10 (antibody, V domains shown)
VH: QLQLQESGPGLVKPSETLSLTCTVSGGSISSRSDYWGWIRQPPGKGLEWIGTIYYSGSTFYNPSLKSRVTISVDTSKNQFSLKLSSVTAADTAVYYCARQQLVLYYFDYWGQGTLVTVSS
VL: not shown
notes: as for B1
B8: 27A3 (antibody, V domains shown)
VH: B7 VH with S58D, F60Y
VL: EIVLTQSPGTLSLSPGERATLSCRASQSVSSSYLAWYQQKPGQAPRLLIYATSNRATGIPDRFSGSGSGTDFTLTISRLEPEDFAVYYCQQHGSSPPLTFGGGTKVEIK
notes: as for B1
B9: 32F4 (antibody, V domains shown)
VH: B7 VH with E16G, T21S, S58N, N78K
VL: B8 VL with A25T, A51G, T52A, N54S, I59V, T73S, H92Y
notes: as for B1
B10: 29D4 (antibody, V domains shown)
VH: B7 VH with D34N, S58H, F60Y, T70S, A90T, V94L, D108E
VL: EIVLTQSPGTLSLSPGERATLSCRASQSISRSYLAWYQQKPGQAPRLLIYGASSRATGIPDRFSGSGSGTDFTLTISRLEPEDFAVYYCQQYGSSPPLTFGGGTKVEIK
notes: as for B1

target: T1, soluble KDR extracellular domain (ECD) (Calbiochem) (human, UniProt P35968 20-764); test: Limited Antigen ELISA, KDR coat 6.25 ng/mL, supernatant 1:25
T1 construct: extracellular domain; Bought protein; also called KDR-ECD; VEGF Receptor 2 D1-7, Cat. #676490
T1 sequence (P35968 20-764): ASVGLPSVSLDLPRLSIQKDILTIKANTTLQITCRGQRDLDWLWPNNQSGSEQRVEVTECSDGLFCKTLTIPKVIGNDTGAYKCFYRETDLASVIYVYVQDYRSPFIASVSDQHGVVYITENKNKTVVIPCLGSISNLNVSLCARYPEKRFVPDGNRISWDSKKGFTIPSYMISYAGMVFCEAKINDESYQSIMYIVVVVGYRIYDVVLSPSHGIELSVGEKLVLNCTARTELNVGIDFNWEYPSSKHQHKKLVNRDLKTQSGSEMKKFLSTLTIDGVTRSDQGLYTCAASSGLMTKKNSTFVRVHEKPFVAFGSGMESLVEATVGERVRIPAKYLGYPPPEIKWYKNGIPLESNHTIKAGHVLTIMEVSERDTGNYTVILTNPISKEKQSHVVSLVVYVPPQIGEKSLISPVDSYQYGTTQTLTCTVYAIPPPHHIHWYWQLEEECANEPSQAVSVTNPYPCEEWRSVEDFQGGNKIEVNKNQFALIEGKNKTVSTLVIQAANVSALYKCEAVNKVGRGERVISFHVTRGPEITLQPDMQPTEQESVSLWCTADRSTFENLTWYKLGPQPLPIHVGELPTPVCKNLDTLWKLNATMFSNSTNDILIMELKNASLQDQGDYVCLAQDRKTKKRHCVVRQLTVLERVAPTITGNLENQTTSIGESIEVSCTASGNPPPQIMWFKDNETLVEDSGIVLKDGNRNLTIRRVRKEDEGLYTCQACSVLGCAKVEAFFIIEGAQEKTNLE
Method: (§1) Samples containing one concentration of antibody (Ab) (1:25 dilution) were incubated overnight to allow Ab binding to approach equilibrium. The low antigen concentration limited the effect of antibody concentration, allowing ranking of the antibodies based on their relative affinity.

Binder	ELISA reading
B1	0.42
B2	0.59
B3	0.27
B4	0.24
B5	0.51
B6	0.61
B7	0.14
B8	0.26
B9	0.36
B10	0.41

target: T1, soluble KDR extracellular domain (ECD) …; test: High Antigen ELISA, KDR coat 500 ng/mL, supernatant 1:2025
Method: (§2) ELISA plates were coated with a greater amount of KDR (at 500 ng/mL) in comparison with the Limited Antigen Quantitation assay described below. Sample containing antibody (Ab) was titrated on the KDR-coated ELISA plates and was incubated overnight at 4° C. to allow Ab binding to approach equilibrium. Titration of Ab in sample covered a dilution range of 1:25 to 1:18,225. A standard curve of KDR-specific antibody of known concentration was used to define the linear range of the assay. Data within the linear range were used to derive the relative concentration of KDR-specific Ab in each titrated sample. The high KDR concentration and the overnight incubation limited the effect of Ab affinity, allowing quantitation of the relative amount of KDR-specific Ab present in each sample.

Binder	ELISA reading
B1	3.33
B2	4.33
B3	1.91
B4	1.42
B5	1.68
B6	3.65
B7	1.87
B8	2.05
B9	2.71
B10	2.06

target: T1, soluble KDR extracellular domain (ECD) …; test: High Antigen ELISA, KDR coat 500 ng/mL, supernatant 1:675
Method: as §2

Binder	ELISA reading
B1	6
B2	5.09
B3	3.32
B4	2.83
B5	3.76
B6	6
B7	3.79
B8	3.93
B9	4.61
B10	4.09

target: T1, soluble KDR extracellular domain (ECD) …; test: High Antigen ELISA, KDR coat 500 ng/mL, supernatant 1:75
Method: as §2

Binder	ELISA reading
B1	6
B2	6
B3	4.06
B4	4.96
B5	4.49
B6	4.56
B7	4.02
B8	4.72
B9	5.56
B10	5.57

target: T1, soluble KDR extracellular domain (ECD) …; test: Limited Antigen ELISA, KDR coat 3.125 ng/mL, supernatant 1:25
Method: as §1

Binder	ELISA reading
B1	0.25
B2	0.3
B3	0.16
B4	0.16
B5	0.25
B6	0.33
B7	0.12
B8	0.15
B9	0.23
B10	0.23

target: T1, soluble KDR extracellular domain (ECD) …; test: Limited Antigen ELISA, KDR coat 12.5 ng/mL, supernatant 1:25
Method: as §1

Binder	ELISA reading
B1	0.86
B2	1.05
B3	0.49
B4	0.4
B5	1
B6	1.32
B7	0.25
B8	0.54
B9	0.74
B10	0.8

target: T1, soluble KDR extracellular domain (ECD) …; test: High Antigen ELISA, KDR coat 500 ng/mL, supernatant 1:225
Method: as §2

Binder	ELISA reading
B1	6
B2	6
B3	3.85
B4	4.29
B5	4.26
B6	4.78
B7	3.95
B8	5.26
B9	6
B10	6

target: T1, soluble KDR extracellular domain (ECD) …; test: High Antigen ELISA, KDR coat 500 ng/mL, supernatant 1:18,225
Method: as §2

Binder	ELISA reading
B1	0.8
B2	0.99
B3	0.24
B4	0.21
B5	0.22
B6	0.87
B7	0.41
B8	0.4
B9	0.5
B10	0.25

target: T1, soluble KDR extracellular domain (ECD) …; test: High Antigen ELISA, KDR coat 500 ng/mL, supernatant 1:25
Method: as §2

Binder	ELISA reading
B1	6
B2	4.66
B3	3.89
B4	4.52
B5	4.42
B6	4.61
B7	4.09
B8	4.79
B9	4.79
B10	4.24

target: T1, soluble KDR extracellular domain (ECD) …; test: Limited Antigen ELISA, KDR coat 25 ng/mL, supernatant 1:25
Method: as §1

Binder	ELISA reading
B1	1.69
B2	1.9
B3	1.13
B4	1.03
B5	2.19
B6	2.2
B7	0.54
B8	1.26
B9	1.09
B10	1.87

target: KDR endogenously expressed on human umbilical vein endothelial cells (HUVEC) (human, UniProt P35968 20-1356); test: cell-based or functional assay
Sequence (P35968 20-1356): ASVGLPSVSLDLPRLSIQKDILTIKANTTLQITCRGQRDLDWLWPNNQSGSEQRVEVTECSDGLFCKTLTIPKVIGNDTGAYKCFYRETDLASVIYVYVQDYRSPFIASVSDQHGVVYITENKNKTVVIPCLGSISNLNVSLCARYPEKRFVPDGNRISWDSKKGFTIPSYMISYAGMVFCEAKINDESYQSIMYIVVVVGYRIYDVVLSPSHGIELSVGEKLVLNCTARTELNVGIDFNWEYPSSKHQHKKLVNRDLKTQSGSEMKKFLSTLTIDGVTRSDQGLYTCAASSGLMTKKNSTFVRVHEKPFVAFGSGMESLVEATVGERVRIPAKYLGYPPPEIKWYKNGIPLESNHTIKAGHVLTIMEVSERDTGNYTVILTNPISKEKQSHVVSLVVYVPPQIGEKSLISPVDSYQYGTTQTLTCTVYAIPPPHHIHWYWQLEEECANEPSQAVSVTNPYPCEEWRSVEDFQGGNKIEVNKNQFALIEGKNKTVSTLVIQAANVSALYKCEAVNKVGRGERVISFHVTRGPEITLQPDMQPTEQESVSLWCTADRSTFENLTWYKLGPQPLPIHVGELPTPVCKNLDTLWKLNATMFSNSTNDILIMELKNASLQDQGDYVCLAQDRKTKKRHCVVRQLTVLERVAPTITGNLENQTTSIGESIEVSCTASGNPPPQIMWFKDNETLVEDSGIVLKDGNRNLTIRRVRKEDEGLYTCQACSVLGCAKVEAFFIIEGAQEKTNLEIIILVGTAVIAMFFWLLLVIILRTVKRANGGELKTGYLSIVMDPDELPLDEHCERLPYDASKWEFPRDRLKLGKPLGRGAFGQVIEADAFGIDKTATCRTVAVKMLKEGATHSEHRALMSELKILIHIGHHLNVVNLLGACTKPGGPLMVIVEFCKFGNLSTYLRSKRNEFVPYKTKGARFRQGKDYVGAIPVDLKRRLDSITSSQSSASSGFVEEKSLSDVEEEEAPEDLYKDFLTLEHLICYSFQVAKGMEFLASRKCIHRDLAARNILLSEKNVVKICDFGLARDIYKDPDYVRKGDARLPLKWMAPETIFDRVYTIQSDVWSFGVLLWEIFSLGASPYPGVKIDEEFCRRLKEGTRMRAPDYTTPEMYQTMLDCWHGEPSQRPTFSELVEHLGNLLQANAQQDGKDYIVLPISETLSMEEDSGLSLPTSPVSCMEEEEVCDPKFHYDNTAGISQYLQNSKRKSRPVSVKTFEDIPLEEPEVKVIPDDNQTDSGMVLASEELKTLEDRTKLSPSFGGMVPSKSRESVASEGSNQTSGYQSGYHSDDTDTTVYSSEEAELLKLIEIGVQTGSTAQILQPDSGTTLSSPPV

Binder	VEGF-E-mediated Survival % Inhibition (Average) [%]	VEGF-E-mediated Survival % Inhibition (n = 1) [%]	VEGF-E-mediated Survival % Inhibition (n = 2) [%]
B1	-6	-2	-9
B2	5	8	1
B3	-10	-1	-20
B4	-15	-19	-11
B5	11	15	6
B6	0	-2	2
B7	57	50	64
B8	58	63	52
B9	64	64	64
B10	66	64	67

target: T1, soluble KDR extracellular domain (ECD) …; test: High Antigen ELISA, KDR coat 500 ng/mL, supernatant 1:6075
Method: as §2

Binder	ELISA reading
B1	1.54
B2	2.16
B3	0.57
B4	0.47
B5	0.57
B6	1.7
B7	0.89
B8	0.96
B9	0.97
B10	0.66

target: T1, soluble KDR extracellular domain (ECD) …; test: Limited Antigen ELISA, KDR coat 50 ng/mL, supernatant 1:25
Method: as §1

Binder	ELISA reading
B1	2.9
B2	3.43
B3	2.27
B4	2.13
B5	3.54
B6	3.81
B7	1.36
B8	2.3
B9	2.22
B10	3.31
